The results in this text go back to US8318172B2, “Breaking immunological tolerance with a genetically encoded unnatural amino acid” (The Scripps Research Institute, priority 2008, dated 2012).

Positions count from the first letter of the chain named.

The target of test [1] is T1, WT mTNFα (Mus musculus, UniProt P06804).
T1 construct: ELISAs were measured against WT mTNFα aa 1-156; His6 tag followed by factor Xa cleavage site (N, cleaved yes); made in house; host or cells: E. coli BL21(DE3)
T1 sequence (P06804 80-235): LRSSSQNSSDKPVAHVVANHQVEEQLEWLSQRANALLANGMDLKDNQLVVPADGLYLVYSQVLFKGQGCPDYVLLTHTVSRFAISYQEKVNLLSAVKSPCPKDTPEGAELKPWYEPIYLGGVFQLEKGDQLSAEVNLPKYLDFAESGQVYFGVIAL
It counts as in vivo, mice. The protocol: (§1) The plates were washed with PBST between incubations.
(§2) 30 μl of 0.5 μg/ml protein was used to coat the wells of Maxisorp 384-well plates (Nunc, Rochester, N.Y.) overnight at 4° C. After washing with PBS+0.05% Tween 20 (PBST), the coated plates were blocked with 80 μl of 1% BSA in PBS, and washed again with PBST. The plates were sequentially incubated with 20 μl of primary antibody or serum diluted in 1% BSA in PBS, 20 μl of HRP-conjugated goat anti-mouse IgG or anti-mouse IgM (Jackson ImmunoResearch Laboratories, West Grove, Pa.), and 20 μl of TMB substrate (KPL, Gaithersburg, Md.), and read at an absorbance of 650 nm. Between incubations, the plates were washed at least six times with PBST.

Test [2] concerns CD4+ T cells from immunized mice. The test can be described thus: T cell proliferation assay. It counts as cell-based. Conditions: Bcl-2 mice, stimulated in vitro with pNO2Phe^86 mTNFα.
Description: For mice immunized without adjuvant, the RIMMS protocol involved 8 injections (5 μg protein/injection) over a period of 17 days. For mice immunized with adjuvant, CFA was used for the first injection and IFA for the remaining 7 injections. […] To perform the T-cell proliferation assays, CD4^+ T cells from immunized mice were isolated from lymph nodes by magnetic depletion with MACS beads (Miltenyi Biotec). T cells were then placed into culture with irradiated splenocytes from naïve Bcl-2 mice and increasing amounts of antigen. The cultures were incubated for 48 h and then pulsed with [^3H]thymidine overnight. The culture plates were harvested onto filter mats and radioactivity was quantified with a TopCount scintillation counter (PerkinElmer).
Isolation of CD4^+ T cells from the lymph nodes of immunized C57BL/6 mice was carried out by magnetic depletion with MACS beads (Miltenyi Biotec, Auburn, Calif.). T cells were then placed into culture with irradiated splenocytes from naïve C57BL/6 mice and increasing amounts of antigen. Following incubation for 48 h, the cultures were incubated with ^3H-thymidine overnight. After harvesting the culture plates onto filter mats, radioactivity was quantified with a TopCount scintillation counter (PerkinElmer, Boston, Mass.).
In test [3] the test system is WT mTNFα. Type of test: in vivo, mice. The following applies: C57BL/6 mice, 8 injections of 5 μg over 17 days, CFA/IFA, serum diluted 1/1000. The method, then:
as §1, §2

For test [4], the system named is C57BL/6 mice, lipopolysaccharide (LPS) challenge. Kind of test: LPS challenge in TNFα-dependent severe endotoxemia mouse model. Type of test: in vivo.
The test system of test [5] is NFκB pathway in HEK293 cells stably expressing NFκB-Luc. The following applies: NF-κB-luciferase activity analysis of mTNFα variants.
Description: The biological activities of the proteins were assayed by measuring the mTNFα-induced activation of NFκB pathway in a NFκB-luciferase reporter cell line. […] The stable cells were dissociated with trypsin, resuspended in DMEM containing 10% FBS at 5×10^5 cells/ml, and plated at 20 μl/well in 384-well white plate (Greiner, Longwood, Fla.). After 2 hours incubation at 5% CO2 in a 37° C. tissue culture incubator, 20 μl of TNFα was added to the cells. The cells were continuously incubated for 24 hours. Luciferase activities were measured by addition of 20 μl Bright-Glo (Promega, Madison, Wis.), and the plate was read using a luminescence plate reader.
The activity of pNO2Phe mTNFα mutants was determined by an NFκB-luciferase reporter gene assay using HEK293 cells stably expressing NFκB-luciferase as described previously (Grunewald, J. et al. (2008) “Immunochemical termination of self-tolerance.” Proc Natl Acad Sci USA 105: 11276-11280).

B1: Phe^86 mTNFα: Tyr^86 Phe mutant of mTNFα, control without NO2 group (protein)
chain: T1 sequence (P06804 80-235) with Y86F
For B1, the anti-TNFα titers result with WT mTNFα [1] (Bcl2 mice, presence or absence of CFA/IFA) is recorded as “no significant anti-TNFα titers”. Further, the “CD4+ T cells specific for pNO2Phe^86 mTNFα elicited by immunization” value in test [2] was “not when mice were immunized”.

B2: WT mTNFα: wild-type murine tumor necrosis factor-α expressed in E. coli (protein)
chain: MSTESMIRDVELAEEALPQKMGGFQNSRRCLCLSLFSFLLVAGATTLFCLLNFGVIGPQRDEKFPNGLPLISSMAQTLTLRSSSQNSSDKPVAHVVANHQVEEQLEWLSQRANALLANGMDLKDNQLVVPADGLYLVYSQVLFKGQGCPDYVLLTHTVSRFAISYQEKVNLLSAVKSPCPKDTPEGAELKPWYEPIYLGGVFQLEKGDQLSAEVNLPKYLDFAESGQVYFGVIAL
With B2, in the test with WT mTNFα [1] (one injection of pNO2Phe^86 mTNFα in CFA, then 7 injections in IFA), the “sustaining titers of cross-reactive anti-mTNFα antibodies” value is listed as “cannot sustain significant titers”. Besides, in the test on WT mTNFα [3], the “serum IgG titers against pNO2Phe^86 mTNFα and WT mTNFα” value was “insignificant serum IgG titers”. The survival rate is 12.5% in test [4] (active immunization, C57BL/6 mice, LPS 8.5 mg/kg i.p.) and 16.7-25.0% in test [4] (passive: pooled serum (100 uL) or purified IgG (4 mg/kg) from immunized Bcl-2 mice, LPS 7.5 mg/kg). In addition, in test [2], the “CD4+ T cells specific for pNO2Phe^86 mTNFα elicited by immunization” value was “not when mice were immunized”. For the same molecule, in test [5], the 50% effective concentration (EC50) turned out to be 216 pM.
